pIC50: −log10 of the molar value.
Assays:
Assay in all cases: IEDB peptide-MHC binding, purified MHC/competitive/radioactivity; ≥ and ≤ were set here for values at or beyond the usual limits of such assays
Settings in all cases: source organism: Hepacivirus hominis
HLA-A*03:01 = molecular target: HLA-A*03:01
HLA-A*11:01 = molecular target: HLA-A*11:01
HLA-A*02:01 = molecular target: HLA-A*02:01

Sequence	pIC50 (HLA-A*03:01)	other results
AVCTRGVAK	6.41	–
HLIFCHSKK	6.40	–
SVPAEILRK	–	pIC50 (HLA-A*11:01): 7.89
TLHGPTPLLY	6.95	–
HLIFCHSKKK	6.41	–
WMNSTGFTK	6.72	–
HLHAPTGSGK	7.77	–
VLAALAAYCL	–	pIC50 (HLA-A*02:01): 7.00
RLLAPITAY	8.40	–

From the Immune Epitope Database (IEDB)
